Measured values reported in paper PMC10397247.
Each block holds one binder with its values, some of them ahead of it.

Columns and labels:
P8mSN = molecular target: T1, P8mSN; assay: two-hybrid library CCNG1;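 further: natural log of median RNA to DNA barcode read ratio; higher means stronger binding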
T1 chain: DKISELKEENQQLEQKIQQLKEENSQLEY

P9mSN = molecular target: T2, P9mSN; assay: two-hybrid library CCNG1;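 further: natural log of median RNA to DNA barcode read ratio; higher means stronger binding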
T2 chain: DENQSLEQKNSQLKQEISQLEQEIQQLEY

4H918-AA = molecular target: T3, 4H918-AA; assay: two-hybrid library CCmax; conditions: mean of both orientations;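 further: natural log of median RNA to DNA barcode read ratio; higher means stronger binding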
T3 chain: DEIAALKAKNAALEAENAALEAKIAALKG

4H953-AA = molecular target: T4, 4H953-AA; assay: two-hybrid library CCmax; conditions: mean of both orientations;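 further: natural log of median RNA to DNA barcode read ratio; higher means stronger binding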
T4 chain: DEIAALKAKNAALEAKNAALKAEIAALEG

4H717-AA = molecular target: T5, 4H717-AA; assay: two-hybrid library CCmax; conditions: mean of both orientations
T5 chain: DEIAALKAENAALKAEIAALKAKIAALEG

4H967-AA = molecular target: T6, 4H967-AA; assay: two-hybrid library CCmax; conditions: mean of both orientations
T6 chain: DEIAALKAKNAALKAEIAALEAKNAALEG

4H797-AA = molecular target: T7, 4H797-AA; assay: two-hybrid library CCmax; conditions: mean of both orientations
T7 chain: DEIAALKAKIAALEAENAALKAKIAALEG

4H568-AA = molecular target: T8, 4H568-AA; assay: two-hybrid library CCmax
T8 chain: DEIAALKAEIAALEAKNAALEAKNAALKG

4H883-AA = molecular target: T9, 4H883-AA; assay: two-hybrid library CCmax; conditions: mean of both orientations
T9 chain: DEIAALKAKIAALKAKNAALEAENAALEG

4H687-AA = molecular target: T10, 4H687-AA; assay: two-hybrid library CCmax; conditions: mean of both orientations
T10 chain: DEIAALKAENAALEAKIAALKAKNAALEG

4H458-AA = molecular target: T11, 4H458-AA; assay: two-hybrid library CCmax; conditions: mean of both orientations
T11 chain: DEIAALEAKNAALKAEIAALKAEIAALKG

4H3697-AA = molecular target: T12, 4H3697-AA; assay: two-hybrid library CCmax; conditions: mean of both orientations
T12 chain: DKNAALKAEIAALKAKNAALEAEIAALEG

4H3395-AA = molecular target: T13, 4H3395-AA; assay: two-hybrid library CCmax; conditions: mean of both orientations
T13 chain: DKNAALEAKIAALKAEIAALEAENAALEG

4H485-AA = molecular target: T14, 4H485-AA; assay: two-hybrid library CCmax; conditions: mean of both orientations
T14 chain: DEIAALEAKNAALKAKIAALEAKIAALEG

4H909-AA = molecular target: T15, 4H909-AA; assay: two-hybrid library CCmax; conditions: mean of both orientations
T15 chain: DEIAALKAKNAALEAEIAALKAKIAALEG

4H94-AA = molecular target: T16, 4H94-AA; assay: two-hybrid library CCmax; conditions: mean of both orientations
T16 chain: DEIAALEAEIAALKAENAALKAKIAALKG

4H3410-AA = molecular target: T17, 4H3410-AA; assay: two-hybrid library CCmax; conditions: mean of both orientations
T17 chain: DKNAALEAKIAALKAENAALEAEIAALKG

4H2649-AA = molecular target: T18, 4H2649-AA; assay: two-hybrid library CCmax; conditions: mean of both orientations
T18 chain: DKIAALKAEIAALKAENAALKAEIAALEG

4H2253-AA = molecular target: T19, 4H2253-AA; assay: two-hybrid library CCmax; conditions: mean of both orientations
T19 chain: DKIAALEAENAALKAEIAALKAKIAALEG

4H1842-AA = molecular target: T20, 4H1842-AA; assay: two-hybrid library CCmax
T20 chain: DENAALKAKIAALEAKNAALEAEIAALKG

4H629-AA = molecular target: T21, 4H629-AA; assay: two-hybrid library CCmax; conditions: mean of both orientations
T21 chain: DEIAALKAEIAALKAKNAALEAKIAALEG

4H2473-AA = molecular target: T22, 4H2473-AA; assay: two-hybrid library CCmax; conditions: mean of both orientations
T22 chain: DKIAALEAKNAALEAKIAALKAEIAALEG

4H536-AA = molecular target: T23, 4H536-AA; assay: two-hybrid library CCmax; conditions: mean of both orientations
T23 chain: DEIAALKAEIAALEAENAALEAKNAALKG

4H570-AA = molecular target: T24, 4H570-AA; assay: two-hybrid library CCmax; conditions: mean of both orientations
T24 chain: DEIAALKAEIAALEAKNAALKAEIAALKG

4H745-AA = molecular target: T25, 4H745-AA; assay: two-hybrid library CCmax; conditions: mean of both orientations
T25 chain: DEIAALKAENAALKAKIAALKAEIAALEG

4H1864-AA = molecular target: T26, 4H1864-AA; assay: two-hybrid library CCmax; conditions: mean of both orientations
T26 chain: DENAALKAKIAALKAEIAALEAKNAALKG

4H2274-AA = molecular target: T27, 4H2274-AA; assay: two-hybrid library CCmax; conditions: mean of both orientations
T27 chain: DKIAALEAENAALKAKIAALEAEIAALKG

4H2330-AA = molecular target: T28, 4H2330-AA; assay: two-hybrid library CCmax
T28 chain: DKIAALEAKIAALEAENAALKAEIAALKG

4H2725-AA = molecular target: T29, 4H2725-AA; assay: two-hybrid library CCmax
T29 chain: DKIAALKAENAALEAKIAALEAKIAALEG

4H1877-AA = molecular target: T30, 4H1877-AA; assay: two-hybrid library CCmax; conditions: mean of both orientations
T30 chain: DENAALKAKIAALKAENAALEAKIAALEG

4H891-AA = molecular target: T31, 4H891-AA; assay: two-hybrid library CCmax; conditions: mean of both orientations
T31 chain: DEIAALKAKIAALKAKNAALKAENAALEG

4H3009-AA = molecular target: T32, 4H3009-AA; assay: two-hybrid library CCmax; conditions: mean of both orientations
T32 chain: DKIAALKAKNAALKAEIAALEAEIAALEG

4H2438-AA = molecular target: T33, 4H2438-AA; assay: two-hybrid library CCmax; conditions: mean of both orientations
T33 chain: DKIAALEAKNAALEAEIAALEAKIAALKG

4H3165-AA = molecular target: T34, 4H3165-AA; assay: two-hybrid library CCmax; conditions: mean of both orientations
T34 chain: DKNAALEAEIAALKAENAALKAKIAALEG

4H3130-AA = molecular target: T35, 4H3130-AA; assay: two-hybrid library CCmax; conditions: mean of both orientations
T35 chain: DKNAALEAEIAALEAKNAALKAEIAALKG

4H2109-AA = molecular target: T36, 4H2109-AA; assay: two-hybrid library CCmax; conditions: mean of both orientations
T36 chain: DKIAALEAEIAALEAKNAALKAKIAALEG

4H2162-AA = molecular target: T37, 4H2162-AA; assay: two-hybrid library CCmax; conditions: mean of both orientations
T37 chain: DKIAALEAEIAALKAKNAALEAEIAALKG

4H850-AA = molecular target: T38, 4H850-AA; assay: two-hybrid library CCmax; conditions: mean of both orientations
T38 chain: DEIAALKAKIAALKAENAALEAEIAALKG

4H3590-AA = molecular target: T39, 4H3590-AA; assay: two-hybrid library CCmax; conditions: mean of both orientations
T39 chain: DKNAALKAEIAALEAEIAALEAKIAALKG

4H3120-AA = molecular target: T40, 4H3120-AA; assay: two-hybrid library CCmax; conditions: mean of both orientations
T40 chain: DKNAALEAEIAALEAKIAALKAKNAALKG

4H3016-AA = molecular target: T41, 4H3016-AA; assay: two-hybrid library CCmax; conditions: mean of both orientations
T41 chain: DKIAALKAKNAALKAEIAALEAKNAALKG

4H930-AA = molecular target: T42, 4H930-AA; assay: two-hybrid library CCmax; conditions: mean of both orientations
T42 chain: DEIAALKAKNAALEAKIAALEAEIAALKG

4H2865-AA = molecular target: T43, 4H2865-AA; assay: two-hybrid library CCmax; conditions: mean of both orientations
T43 chain: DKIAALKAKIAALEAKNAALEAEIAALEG

4H3865-AA = molecular target: T44, 4H3865-AA; assay: two-hybrid library CCmax; conditions: mean of both orientations
T44 chain: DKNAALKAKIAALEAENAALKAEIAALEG

4H3381-AA = molecular target: T45, 4H3381-AA; assay: two-hybrid library CCmax; conditions: mean of both orientations
T45 chain: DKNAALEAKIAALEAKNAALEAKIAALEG

4H3753-AA = molecular target: T46, 4H3753-AA; assay: two-hybrid library CCmax; conditions: mean of both orientations
T46 chain: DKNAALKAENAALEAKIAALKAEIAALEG

4H710-AA = molecular target: T47, 4H710-AA; assay: two-hybrid library CCmax; conditions: mean of both orientations
T47 chain: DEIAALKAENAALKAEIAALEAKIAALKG

4H310-AA = molecular target: T48, 4H310-AA; assay: two-hybrid library CCmax; conditions: mean of both orientations
T48 chain: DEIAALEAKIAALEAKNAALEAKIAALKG

4H2389-AA = molecular target: T49, 4H2389-AA; assay: two-hybrid library CCmax; conditions: mean of both orientations
T49 chain: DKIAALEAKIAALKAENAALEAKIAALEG

4H2698-AA = molecular target: T50, 4H2698-AA; assay: two-hybrid library CCmax; conditions: mean of both orientations
T50 chain: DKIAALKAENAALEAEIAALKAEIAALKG

interaction score (P8mSN): -0.489 | interaction score (P9mSN): -1.04
Binder: DKISELKEENQQLEQKIQQLKEENSQLEY [P8mSN]

interaction score (4H918-AA): -1.24 | interaction score (4H953-AA): -1.78 | interaction score (4H717-AA): -1.75 | interaction score (4H967-AA): -0.838 | interaction score (4H797-AA): -1.39 | interaction score (4H568-AA): -0.405 | interaction score (4H883-AA): 2.12 | interaction score (4H687-AA): -1.51
Binder: DEIAALKAEIAALEAKNAALEAKNAALKG [4H568-AA]

interaction score (4H458-AA): -1.14 | interaction score (4H3697-AA): -1.01 | interaction score (4H3395-AA): -2.04 | interaction score (4H485-AA): -1.94 | interaction score (4H909-AA): -1.17 | interaction score (4H94-AA): -1.17 | interaction score (4H3410-AA): -0.8 | interaction score (4H2649-AA): -1.27 | interaction score (4H2253-AA): -1.72 | interaction score (4H1842-AA): 1.88 | interaction score (4H629-AA): -1.59 | interaction score (4H2473-AA): -1.44 | interaction score (4H536-AA): -1.7 | interaction score (4H570-AA): 0.585 | interaction score (4H745-AA): -1.86 | interaction score (4H1864-AA): -1.82 | interaction score (4H2274-AA): -1.6 | interaction score (4H2330-AA): -1.35 | interaction score (4H2725-AA): -1.86 | interaction score (4H1877-AA): -1.15 | interaction score (4H891-AA): -1.42 | interaction score (4H3009-AA): -1.78 | interaction score (4H2438-AA): -1.14 | interaction score (4H3165-AA): -1.43 | interaction score (4H3130-AA): 0.65 | interaction score (4H2109-AA): -1.43 | interaction score (4H2162-AA): -1.21 | interaction score (4H850-AA): 0.256 | interaction score (4H3590-AA): -0.391 | interaction score (4H3120-AA): -1.44 | interaction score (4H3016-AA): -1.43 | interaction score (4H930-AA): -1.21 | interaction score (4H797-AA): -1.34 | interaction score (4H2865-AA): -0.0645 | interaction score (4H3865-AA): -0.938 | interaction score (4H3381-AA): -1.2 | interaction score (4H3753-AA): -1.52 | interaction score (4H710-AA): -1.63 | interaction score (4H310-AA): 0.761 | interaction score (4H2389-AA): -1.52 | interaction score (4H2698-AA): -0.986
Binder: DENAALKAKIAALEAKNAALEAEIAALKG [4H1842-AA]
